Test results from patent publication US20040224389A1.

Biological target: human Fas (CD95/APO-1) (human) (UniProt P25445)
Test: flow cytometric immunofluorescence on 293 cells, 2 ug/ml antibody compared with FITC-conjugated isotype control DAK-G01

UniProt P25445, sequence (P25445 26-335 limits assumed): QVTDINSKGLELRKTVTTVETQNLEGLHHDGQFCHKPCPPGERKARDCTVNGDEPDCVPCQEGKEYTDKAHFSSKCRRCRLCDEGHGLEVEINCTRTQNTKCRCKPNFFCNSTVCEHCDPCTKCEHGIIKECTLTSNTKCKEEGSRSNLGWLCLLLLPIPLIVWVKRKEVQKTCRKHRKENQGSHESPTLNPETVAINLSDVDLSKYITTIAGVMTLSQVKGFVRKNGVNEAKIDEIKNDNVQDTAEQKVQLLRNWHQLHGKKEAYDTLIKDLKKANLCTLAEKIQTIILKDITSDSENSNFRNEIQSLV

## FITC-conjugated mouse IgG1 anti-human Fas receptor (clone DX2, Pharmingen) (antibody)
  mean Fas fluorescence, fold over nonspecific fluorescence (isotype control): 4.9 fold
